Where two headings read alike, the source gives them in different places.
T1: recombinant CD74 ectodomain (sCD74 = CD74 73-232) (UniProt P04233-2 73-232)
T1 sequence (looked up): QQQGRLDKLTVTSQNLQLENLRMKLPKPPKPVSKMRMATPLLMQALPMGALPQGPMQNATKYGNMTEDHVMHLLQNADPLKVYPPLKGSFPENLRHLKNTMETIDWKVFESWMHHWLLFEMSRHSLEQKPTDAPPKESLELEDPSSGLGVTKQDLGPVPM

B1: biotinylated MIF (ligand, UniProt P14174 1-115, looked up)
chain: MPMFIVNTNVPRASVPDGFLSELTQQLAQATGKPPQYIAVHVVPDQLMAFGGSSEPCALCSLHSIGKIGGAQNRSYSKLLCGLLAERLRISPDRVYINYYDMNAANVGWNNSTFA
modifications: biotin (site not stated)
B2: human macrophage migration inhibitory factor (MIF) (ligand, UniProt P14174 1-115, looked up)
chain: B1 chain

Assays:
[1] = target: T1, recombinant CD74 ectodomain (sCD74 = …); test: ELISA
[2] = target: T1, recombinant CD74 ectodomain (sCD74 = …); test: SPR
[3] = target: T1, recombinant CD74 ectodomain (sCD74 = …); test: SPR; remark: listed apart in the source

Binder	fold increase of MIF bound with 500 nM MIF20 against MIF without agonist [1] [fold]	Kd [2] [nM]	Kd [3] [nM]
B1	~2.5		
B2		6.06	2.25

Reference: article PMC3781594 (Circulation, 2013)
